Results on two molecules are retold here after patent US20090075270A1.

Data set [1] concerns the target Kid toxin (endoribonuclease) of the parD locus of E. coli plasmid R1 (Escherichia coli plasmid R1) (UniProt P13976). The data set is described as follows: cell-based or functional assay.
For data set [2], the target named is T1, Kis antitoxin of the parD locus of E. coli plasmid R1 (wild type), P13975.
T1 chain: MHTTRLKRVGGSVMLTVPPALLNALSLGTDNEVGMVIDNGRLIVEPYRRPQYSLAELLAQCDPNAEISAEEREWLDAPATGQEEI

As for “Kis17, thermo-sensitive mutant Kis antitoxin (P18L) (from UniProt P13975 1-85)”, the repA/copB ratio by Real Time-PCR, kis17kid sample against kiskid sample in data set [1] came to 38%.

B1: Kid toxin (endoribonuclease) of the parD locus of E. coli plasmid R1 (protein)
chain: MERGEIWLVSLDPTAGHEQQGTRPVLIVTPAAFNRVTRLPVVVPVTSGGNFARTAGFAVSLDGVGIRTTGVVRCDQPRTIDMKARGGKRLERVPETIMNEVLGRLSTILT
As to B1, the “cleavage of dnaB mRNA in vitro by purified Kid (4 pmols), alone or with Kis (6 pmols); primer extension” value in data set [2] was “dnaB-mRNA is cleaved by Kid in vitro, and that this effect is inhibited when Kis is added to the reaction”.
